T1: Cry6Aa trypsin-resistant core, polypeptide chain 12-390 (Bacillus thuringiensis, UniProt Q45757 12-390)
T1 construct: cut after Arg11 and after Arg390; Never separated from the C-terminal peptide without reduction; Cys88 is disulfide bonded to Cys451 of the peptide; also called main body of the toxin; major core
T1 sequence (looked up): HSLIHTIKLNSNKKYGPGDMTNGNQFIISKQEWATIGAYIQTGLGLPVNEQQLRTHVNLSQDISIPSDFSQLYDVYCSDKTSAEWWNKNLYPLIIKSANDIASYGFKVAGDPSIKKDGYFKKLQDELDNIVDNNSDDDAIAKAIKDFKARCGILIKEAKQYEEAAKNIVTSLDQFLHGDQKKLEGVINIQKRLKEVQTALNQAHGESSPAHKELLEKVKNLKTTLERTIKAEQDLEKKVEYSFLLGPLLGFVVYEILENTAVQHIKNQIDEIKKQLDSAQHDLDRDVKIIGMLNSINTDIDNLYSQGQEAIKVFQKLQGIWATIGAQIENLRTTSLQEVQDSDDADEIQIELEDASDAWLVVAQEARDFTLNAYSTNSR

B1: Cry6Aa C-terminal peptide CTP2 (residues 451-475) (peptide)
peptide: CPENNFMIYWYNNSDWYNNSDWYNN
notes: Minor species of the trypsin-processed toxin
B2: Cry6Aa C-terminal peptide CTP1 (residues 444-475) (peptide)
peptide: NSNLEYKCPENNFMIYWYNNSDWYNNSDWYNN
notes: Cys451 is disulfide bonded to Cys88 of chain 12-390

Legend:
[1] = molecular target: full-length, wild-type Cry6Aa1 (Bacillus thuringiensis) (UniProt Q45757); experiment: SEC + other: non-denaturing and denaturing SDS-PAGE; Superdex 75 26/90, 25 mM CAPS pH 10, 50 mM NaCl, 2.5 ml/min; first peak at the void volume held dimers (only monomers on denaturing SDS-PAGE), second peak predominantly monomer
[2] = molecular target: T1, Cry6Aa trypsin-resistant core, …; experiment: intact mass LC-MS; conditions: both partners purified

Molecule | stoichiometry N [1] | binding result [2]
full-length, wild-type Cry6Aa1 (from UniProt Q45757 1-475) (natural protein) | 2 | 
B1 |  | binds
B2 |  | binds

Reference: PMC5004264, “The pesticidal Cry6Aa toxin from Bacillus thuringiensis is structurally similar to HlyE-family alpha pore-forming toxins” (BMC Biology, 2016)
